Measured values published in publication doi:10.1101/2025.03.12.642038, “Structural, biophysical and biological analysis and characterisation of IRF4 DNA-binding domain mutations associated with multiple myeloma”.
Changes are numbered by the printed parent chain.

Key:
Experiment in all cases: SPR two-state kinetic; FP: PBS + 0.05% Tween20, 5 nM DNA, 1 h, room temperature; SPR: Biacore S200, SA chip, protein 0.1-4500 nM, running buffer not given in material; errors are SD
Details in all cases: protein: recombinant; tags: N-terminal His8-linker-His8-TEV, cleaved; label: 3' biotin; hairpin, TTTT loop
IRF4 DBD L70V = biological target: T1, IRF4 DBD L70V (Homo sapiens, UniProt Q15306 20-132, L70V)
T1 sequence: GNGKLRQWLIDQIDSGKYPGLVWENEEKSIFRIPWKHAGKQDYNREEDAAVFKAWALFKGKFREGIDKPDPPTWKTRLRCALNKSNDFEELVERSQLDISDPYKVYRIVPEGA

IRF4 DBD D106Y = biological target: T2, IRF4 DBD D106Y (Homo sapiens, UniProt Q15306 20-132, D106Y)
T2 sequence: T1 sequence with V51L, D87Y

IRF4 DBD S114N = biological target: T3, IRF4 DBD S114N (Homo sapiens, UniProt Q15306 20-132, S114N)
T3 sequence: T1 sequence with V51L, S95N

IRF4 DBD D117H = biological target: T4, IRF4 DBD D117H (Homo sapiens, UniProt Q15306 20-132, D117H)
T4 sequence: T1 sequence with V51L, D98H

IRF4 DBD T95A = biological target: T5, IRF4 DBD T95A (Homo sapiens, UniProt Q15306 20-132, T95A)
T5 sequence: T1 sequence with V51L, T76A

IRF4 DBD K123R = biological target: T6, IRF4 DBD K123R (Homo sapiens, UniProt Q15306 20-132, K123R)
T6 sequence: T1 sequence with V51L, K104R

IRF4 DBD wild-type = biological target: T7, IRF4 DBD wild-type (Homo sapiens, UniProt Q15306 20-132)
T7 sequence: T1 sequence with V51L

IRF4 DBD K59N = biological target: T8, IRF4 DBD K59N (Homo sapiens, UniProt Q15306 20-132, K59N)
T8 sequence: T1 sequence with K40N, V51L

IRF4 DBD S114R = biological target: T9, IRF4 DBD S114R (Homo sapiens, UniProt Q15306 20-132, S114R)
T9 sequence: T1 sequence with V51L, S95R

IRF4 DBD K59R = biological target: T10, IRF4 DBD K59R (Homo sapiens, UniProt Q15306 20-132, K59R)
T10 sequence: T1 sequence with K40R, V51L

CTTGGTTTCACTTCCTGCGTTTTCGCAGGAAGTGAAACCAAG (structured_DNA) [IRE hairpin (biotin)]
Kd (IRF4 DBD L70V): 121 ± 111 nM | Kd (IRF4 DBD D106Y): 135 ± 121 nM | Kd (IRF4 DBD S114N): 145 ± 151 nM | Kd (IRF4 DBD D117H): 204 ± 131 nM | Kd (IRF4 DBD T95A): 305 ± 174 nM | Kd (IRF4 DBD K123R): 1110 ± 341 nM | Kd (IRF4 DBD wild-type): 187 ± 143 nM | Kd (IRF4 DBD K59N): 107 ± 133 nM | Kd (IRF4 DBD S114R): 49 ± 26 nM | Kd (IRF4 DBD K59R): 460 ± 429 nM
